Measurements published in US20240368309A1 (Hoffmann-La Roche, published 2024).
Numbering of substitutions follows the chain as printed. One block for each binder: values may come before it.

Experiments:
[1] = biological target: T1, biotinylated monovalent EpCAM-Fc (human EpCAM ECD-Fc knob avi-his paired with Fc hole) (human, UniProt P01857 104-328 = IgG part, biotin on the avi tag (BirA co-expression)); assay: SPR ProteOn XPR36 off-rate, biotinylated monovalent EpCAM-Fc on NLC chip, supernatant
T1 construct: also called monovalent EpCAM-Fc construct; huEPCAM-Fc-knob (avi-His) + Fc hole (wt)

[2] = biological target: T2, human CD28 on CHO cells (CHO-k1 ATCC #CCL-61 modified to stably overexpress human CD28) (human, UniProt P10747 19-220); assay: flow cytometry, CHO-k1 cells stably overexpressing human CD28; monovalent one-armed IgG from supernatant, PE-labelled goat anti-human detection; MFI (PE) against c [nM]
T2 construct: also called CHO-k1-huCD28 cells; hu CD28

[3] = biological target: T1, biotinylated monovalent EpCAM-Fc (human …); assay: SPR ProteOn XPR36 off-rate, biotinylated monovalent EpCAM-Fc on NLC chip
[4] = biological target: T2, human CD28 on CHO cells (CHO-k1 ATCC …); assay: flow cytometry, CHO-k1-huCD28 cells; PE-labelled goat anti-human detection; fluorescence intensity [PE] against concentration (nM)
[5] = biological target: T3, human EpCAM on tumor cells (KATO-III, HT-29, MKN45, NCI-H1755) (human, UniProt P16422 24-314); assay: flow cytometry on EpCAM-expressing HT-29 cells
T3 construct: endogenous EpCAM of human tumor cell lines; also called epithelial cell adhesion molecule
T3 sequence: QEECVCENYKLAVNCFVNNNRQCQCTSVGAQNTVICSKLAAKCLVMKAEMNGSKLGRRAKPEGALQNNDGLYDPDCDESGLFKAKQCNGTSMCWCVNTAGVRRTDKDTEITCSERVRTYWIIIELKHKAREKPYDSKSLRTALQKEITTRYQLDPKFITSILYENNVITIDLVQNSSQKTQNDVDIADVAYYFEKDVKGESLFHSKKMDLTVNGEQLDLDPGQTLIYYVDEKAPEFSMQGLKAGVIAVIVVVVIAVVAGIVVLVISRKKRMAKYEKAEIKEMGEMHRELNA

[6] = biological target: T3, human EpCAM on tumor cells (KATO-III, …); assay: flow cytometry, KATO-III cells (EpCAM+); PE-labelled goat anti-human detection; fluorescence intensity [PE] against concentration (nM)
[7] = biological target: T3, human EpCAM on tumor cells (KATO-III, …); assay: cell-based or functional assay
[8] = biological target: T3, human EpCAM on tumor cells (KATO-III, …); assay: flow cytometry, KATO-III cells (EpCAM+); PE-labelled goat anti-human detection; fluorescence intensity [PE] against concentration (nM); CD19-targeted negative control

B1: Monovalent EpCAM (GG01_VH x GG07_VL) (antibody, IgG1, V domains shown)
VH: QVQLVQSGSELKKPGASVKVSCKASGYTFTNYGMNWVRQAPGQGLEWMGWINTYTGESTYAQGFTGRFVFSLDTSVSTAYLQISSLKAEDTAVYFCARFAIKGDYWGQGTLVTVSS
VL: EIVLTQSPGTLSLSPGERATLSCRASQSINNYLYWYQQKPGQAPRLLIYQMSNRATGIPDRFSGSGSGTDFTLTISRLEPEDFAVYYCAQNLEIPRTFGQGTKLEIK
notes: one-armed hu IgG1 PG-LALA, VH/VL-crossed Fab on Fc hole plus empty Fc knob; from supernatant
binding result [1]: no binding (tested: 50 nM)

B5: EpCAM (4D5MOC-B)-CD28 (SA_variant 8) 1+1 (bispecific antibody, human IgG1, kappa, L234A L235A)
heavy 1: not shown
light 1: QVQLVQSGAEVKKPGASVKVSCKASGYTFTSYYIHWVRQAPGQGLEWIGSIYPGNVQTNYNEKFKDRATLTVDTSISTAYMELSRLRSDDTAVYFCTRSHYGLDFNFDVWGQGTTVTVSSASVAAPSVFIFPPSDEQLKSGTASVVCLLNNFYPREAKVQWKVDNALQSGNSQESVTEQDSKDSTYSLSSTLTLSKADYEKHKVYACEVTHQGLSSPVTKSFNRGEC
heavy 2: EVQLVQSGPGLVQPGGSVRISCAASGYTFTNYGMNWVKQAPGKGLEWMGWINTYTGESTYADSFKGRFTFSLDTSASAAYLQINSLRAEDTAVYYCARFAIKGDYWGQGTLLTVSSASTKGPSVFPLAPSSKSTSGGTAALGCLVEDYFPEPVTVSWNSGALTSGVHTFPAVLQSSGLYSLSSVVTVPSSSLGTQTYICNVNHKPSNTKVDEKVEPKSCDKTHTCPPCPAPEAAGGPSVFLFPPKPKDTLMISRTPEVTCVVVDVSHEDPEVKFNWYVDGVEVHNAKTKPREEQYNSTYRVVSVLTVLHQDWLNGKEYKCKVSNKALGAPIEKTISKAKGQPREPQVCTLPPSRDELTKNQVSLSCAVKGFYPSDIAVEWESNGQPENNYKTTPPVLDSDGSFFLVSKLTVDKSRWQQGNVFSCSVMHEALHNHYTQKSLSLSP
light 2: DIQMTQSPSSLSASVGDRVTITCRSTKSLLHSNGITYLYWYQQKPGKAPKLLIYQMSNLASGVPSRFSSSGSGTDFTLTISSLQPEDFATYYCAQNLEIPRTFGQGTKVELKRTVAAPSVFIFPPSDRKLKSGTASVVCLLNNFYPREAKVQWKVDNALQSGNSQESVTEQDSKDSTYSLSSTLTLSKADYEKHKVYACEVTHQGLSSPVTKSFNRGEC
notes: huIgG1 PG-LALA CrossFab; VH/VL exchange in CD28 Fab (knob), charged modifications in EpCAM Fab (hole); also called Molecule F; P1AF5980
binding result [4]: binds | EC50 [5]: 3.44 nM | EC50 (read off the curve) [6]: ~10 nM | EC50, IL2 reporter cell assay with HT-29 cells and 10 nM anti-CD3 OKT3 [7]: 0.203 nM

B6: EpCAM (MT201)-CD28 (SA_variant 15) 1+1 (bispecific antibody, human IgG1, kappa, L234A L235A)
heavy 1: not shown
light 1: B5 light 1 with F105W
heavy 2: not shown
light 2: ELQMTQSPSSLSASVGDRVTITCRTSQSISSYLNWYQQKPGQPPKLLIYWASTRESGVPDRFSGSGSGTDFTLTISSLQPEDSATYYCQQSYDIPYTFGQGTKLEIKRTVAAPSVFIFPPSDRKLKSGTASVVCLLNNFYPREAKVQWKVDNALQSGNSQESVTEQDSKDSTYSLSSTLTLSKADYEKHKVYACEVTHQGLSSPVTKSFNRGEC
notes: huIgG1 PG-LALA CrossFab; VH/VL exchange in CD28 Fab (knob), charged modifications in EpCAM Fab (hole); also called Molecule A; P1AE9051
EC50 (read off the curve) [4]: ~6 nM

B7: CD19 (8B8-2B11)-CD28 (SA_variant 8) 1+1 (bispecific antibody, human IgG1, kappa, L234A L235A)
heavy 1: not shown
light 1: not shown
heavy 2: DIVMTQTPLSLSVTPGQPASISCKSSQSLETSTGTTYLNWYLQKPGQSPQLLIYRVSKRFSGVPDRFSGSGSGTDFTLKISRVEAEDVGVYYCLQLLEDPYTFGQGTKLEIKSSASTKGPSVFPLAPSSKSTSGGTAALGCLVKDYFPEPVTVSWNSGALTSGVHTFPAVLQSSGLYSLSSVVTVPSSSLGTQTYICNVNHKPSNTKVDKKVEPKSCDKTHTCPPCPAPEAAGGPSVFLFPPKPKDTLMISRTPEVTCVVVDVSHEDPEVKFNWYVDGVEVHNAKTKPREEQYNSTYRVVSVLTVLHQDWLNGKEYKCKVSNKALGAPIEKTISKAKGQPREPQVCTLPPSRDELTKNQVSLSCAVKGFYPSDIAVEWESNGQPENNYKTTPPVLDSDGSFFLVSKLTVDKSRWQQGNVFSCSVMHEALHNHYTQKSLSLSP
light 2: QVQLVQSGAEVKKPGASVKVSCKASGYTFTDYIMHWVRQAPGQGLEWMGYINPYNDGSKYTEKFQGRVTMTSDTSISTAYMELSRLRSDDTAVYYCARGTYYYGPQLFDYWGQGTTVTVSSASVAAPSVFIFPPSDEQLKSGTASVVCLLNNFYPREAKVQWKVDNALQSGNSQESVTEQDSKDSTYSLSSTLTLSKADYEKHKVYACEVTHQGLSSPVTKSFNRGEC
notes: control; huIgG1 PG-LALA CrossFab; charged modifications in CD28 Fab (knob), VH/VL exchange in CD19 Fab (hole); also called Molecule H; P1AF0175
binding result [8]: no binding (tested: 500 nM)

The remaining lines, values ahead:

binding result [1]: no binding (tested: 50 nM)
B2: Monovalent EpCAM (GG07_VH x GG07_VL) (antibody, IgG1, V domains shown)
VH: B1 VH with I101R, K102S
VL: B1 VL
notes: as for B1

binding result [2]: binds
B3: CD28(SA)_variant_9 (antibody, human IgG1, kappa, L234A L235A)
heavy: not shown
light: not shown
chain: DKTHTCPPCPAPEAAGGPSVFLFPPKPKDTLMISRTPEVTCVVVDVSHEDPEVKFNWYVDGVEVHNAKTKPREEQYNSTYRVVSVLTVLHQDWLNGKEYKCKVSNKALGAPIEKTISKAKGQPREPQVCTLPPSRDELTKNQVSLSCAVKGFYPSDIAVEWESNGQPENNYKTTPPVLDSDGSFFLVSKLTVDKSRWQQGNVFSCSVMHEALHNRFTQKSLSLSP
notes: one-armed (monovalent) hu IgG1 PG-LALA, empty Fc hole; tested from supernatant; also called P1AE3065

koff [3]: 0.00024 s⁻¹
B4: parental murine anti-human EpCAM antibody MOC31 (antibody, V domains shown)
VH: QVQLQQSGPELKKPGETVKISCKASGYTFTNYGMNWVKQAPGRGLKWMGWINTYTGESTYADDFKGRFAFSLETSASAAYLQINNLKNEDTATYFCARFAIKGDYWGQGTTLTVSS
VL: DIVMTQSAFSNPVTLGTSASISCRSTKSLLHSNGITYLYWYLQKPGQSPQLLIYQMSNLASGVPDRFSSSGSGTDFTLRISRVEAEDVGVYYCAQNLEIPRTFGGGTKLEIK
